T1: full-length cynomolgous DLL3 on HEK293 cells (cynomolgous, UniProt A0A2K5WSR1 27-585)
T1 construct: also called 293 cyno DLL3
T1 sequence: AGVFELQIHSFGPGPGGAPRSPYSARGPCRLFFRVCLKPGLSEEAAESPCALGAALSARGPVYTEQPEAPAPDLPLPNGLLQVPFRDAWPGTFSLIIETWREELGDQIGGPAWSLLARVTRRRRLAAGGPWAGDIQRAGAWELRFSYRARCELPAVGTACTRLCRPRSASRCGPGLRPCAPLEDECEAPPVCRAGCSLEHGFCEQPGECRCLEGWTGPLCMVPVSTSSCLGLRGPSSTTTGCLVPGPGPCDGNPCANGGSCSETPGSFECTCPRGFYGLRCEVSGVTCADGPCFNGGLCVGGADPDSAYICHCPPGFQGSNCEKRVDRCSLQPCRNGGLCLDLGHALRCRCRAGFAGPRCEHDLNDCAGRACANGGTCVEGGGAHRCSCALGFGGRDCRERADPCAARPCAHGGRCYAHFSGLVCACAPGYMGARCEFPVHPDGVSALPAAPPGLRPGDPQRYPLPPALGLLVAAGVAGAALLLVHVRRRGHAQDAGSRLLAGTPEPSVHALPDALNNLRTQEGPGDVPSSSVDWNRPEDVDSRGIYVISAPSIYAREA

T2: full-length human DLL3 on cells (human, UniProt Q9NYJ7 27-618)
T2 sequence: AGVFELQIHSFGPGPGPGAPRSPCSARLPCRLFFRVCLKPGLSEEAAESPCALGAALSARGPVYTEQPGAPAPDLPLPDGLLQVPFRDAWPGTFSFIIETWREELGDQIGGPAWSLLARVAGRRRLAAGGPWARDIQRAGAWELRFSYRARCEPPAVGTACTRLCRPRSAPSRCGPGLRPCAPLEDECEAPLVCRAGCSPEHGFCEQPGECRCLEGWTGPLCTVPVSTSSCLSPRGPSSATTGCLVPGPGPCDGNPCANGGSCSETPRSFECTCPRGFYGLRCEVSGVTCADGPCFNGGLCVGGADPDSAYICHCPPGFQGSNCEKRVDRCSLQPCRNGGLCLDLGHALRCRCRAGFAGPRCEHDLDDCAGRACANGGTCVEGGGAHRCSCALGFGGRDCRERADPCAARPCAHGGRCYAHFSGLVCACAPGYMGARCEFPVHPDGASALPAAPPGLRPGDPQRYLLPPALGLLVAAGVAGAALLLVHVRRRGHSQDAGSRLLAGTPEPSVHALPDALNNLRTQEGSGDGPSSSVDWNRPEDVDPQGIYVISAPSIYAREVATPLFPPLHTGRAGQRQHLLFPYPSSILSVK

T3: full-length mouse DLL3 on HEK293 cells (mouse, UniProt O88516 33-584)
T3 construct: DLL3'; also called 293 mDLL3
T3 sequence: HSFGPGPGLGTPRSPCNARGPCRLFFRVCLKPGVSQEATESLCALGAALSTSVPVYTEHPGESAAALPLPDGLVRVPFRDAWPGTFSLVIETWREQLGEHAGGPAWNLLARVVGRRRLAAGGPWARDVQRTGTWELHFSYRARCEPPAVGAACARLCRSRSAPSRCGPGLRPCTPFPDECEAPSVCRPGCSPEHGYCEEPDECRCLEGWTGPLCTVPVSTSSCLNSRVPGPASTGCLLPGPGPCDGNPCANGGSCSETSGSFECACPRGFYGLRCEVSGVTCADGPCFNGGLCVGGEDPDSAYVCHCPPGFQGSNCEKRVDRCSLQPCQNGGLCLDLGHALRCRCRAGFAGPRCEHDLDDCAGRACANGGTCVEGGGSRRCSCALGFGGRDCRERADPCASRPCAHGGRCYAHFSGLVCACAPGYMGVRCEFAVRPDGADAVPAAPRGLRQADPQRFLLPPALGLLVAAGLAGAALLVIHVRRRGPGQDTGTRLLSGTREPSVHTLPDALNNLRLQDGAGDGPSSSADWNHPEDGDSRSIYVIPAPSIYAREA

B1: 2-C8-A (antibody, V domains shown)
VH: EVQLVESGGGLVQPGGSQRLSCAASGFTFSSYWMNWVRQAPGKGLEWVANIKEDGSEKYYVDSVKGRFTISRDNAKNSLYLQMNSLRAEDTAVYYCARDPGWAPFDYWGQGTLVTVSS
VL: DIQMSQSPSSLSASVGDRVTITCRASQGISNYLAWFQQKPGKAPKSLIYAASSLQSGVPSKFSGSGSGTDFTLAISSLQPEDFATYYCQQYNSFPYTFGQGTTLEIK
notes: also called 2-C8-A monoclonal antibody
B2: 6-G23-F (antibody, V domains shown)
VH: QVQLVQSGAEVKKPGASVKVSCKASGYTFTSYYIHWVRQAPGQGLEWMGIIDPSDGSTNYAQKFQGRVTMTRDTSTSTVYMELSSLRSEDTAVYYCARDREYNYYGLDVWGQGTTVTVSS
VL: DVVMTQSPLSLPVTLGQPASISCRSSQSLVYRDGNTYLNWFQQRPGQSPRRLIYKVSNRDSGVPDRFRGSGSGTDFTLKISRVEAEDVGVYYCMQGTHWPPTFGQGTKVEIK
notes: also called 6-G23-F monoclonal antibody
B3: 10-O18-A (antibody, V domains shown)
VH: QVQLQESGPGLVKPSETLSLTCTVSGGSINSYYWSWIRQPPGKGLEWIGYIFYSGITNYNPSLKSRVTISLDTSKNQFSLKLSSVTAADTAVYYCARIGVAGFYFDYWGQGTLVTVSS
VL: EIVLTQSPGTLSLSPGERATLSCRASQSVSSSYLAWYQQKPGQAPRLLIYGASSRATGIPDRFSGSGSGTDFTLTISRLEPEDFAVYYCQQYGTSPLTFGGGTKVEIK
notes: Hybridoma monoclonal from Ablexis AlivaMAb Kappa mice; it was captured on anti-mouse Fc sensors and detected with anti-mouse IgG / anti-mouse IgG1 reagents; also called 10-O18-A monoclonal antibody
B4: 7-I1-B (antibody, V domains shown)
VH: EVQLVESGGGLVKPGGSLRLSCAASGFTFSNTWMSWVRQAPGKGLEWVGRIKSKSDGGTTDYAAPVKGRFTISRDDSKNTLYLQMNSLKTEDTAVYYCTQYYWNSFDYWGQGTLVTVSS
VL: not shown
notes: also called 7-I1-B mAb

Legend:
[1] = biological target: T1, full-length cynomolgous DLL3 on HEK293 …; assay: flow cytometry, HEK293 cells transfected with full-length cynomolgous DLL3, mAb 10 µg/ml
Experimental: (§1) For this purpose, HEK293 cells were transfected with plasmid DNA encoding full-length human, mouse or cynomolgous DLL3 and used in the experiment. Briefly […] transfected HEK293 cells or NCI-H82 primary cells were added in FACS buffer PBS 0.5% BSA to the wells of a 96 well U bottom plate and purified monoclonal added to 10 μg/ml. After 30 minutes incubation at 4° C. the cells were washed 3 times in FACS buffer and incubated with a PE labelled F(ab)2 anti-mouse IgG H and L 2nd stage. After another 30 minutes incubation at 4° C. the cells were washed three times in FACS buffer and analyzed on the flow cytometer. Data are presented at the ratio of the Mean Fluorescent Intensity for the monoclonal divided by the background staining with the 2nd stage.

[2] = biological target: T2, full-length human DLL3 on cells; assay: cell-based or functional assay
[3] = biological target: T2, full-length human DLL3 on cells; assay: cell-based or functional assay; remark: listed apart in the source
[4] = biological target: T2, full-length human DLL3 on cells; assay: flow cytometry, NCI-H82 cells (endogenous human DLL3), mAb 10 µg/ml
Experimental: as §1

[5] = biological target: T2, full-length human DLL3 on cells; assay: cell-based or functional assay; remark: listed apart in the source
[6] = biological target: T3, full-length mouse DLL3 on HEK293 cells; assay: flow cytometry, HEK293 cells transfected with full-length mouse DLL3, mAb 10 µg/ml
Experimental: as §1

[7] = biological target: T2, full-length human DLL3 on cells; assay: flow cytometry, HEK293 cells transfected with full-length human DLL3, mAb 10 µg/ml
Experimental: as §1

Binder	ratio of the Mean Fluorescent Intensity for the monoclonal divided by the background staining with the 2nd stage [1]	Dy light Dy650 fluorescence in the quenching internalization assay on NCI-H82 cells (% of the Control Reference Monoclonal Antibody) [2]	FAB ZAP % SC16 Max Killing (NCI-H82 cells) [3] [% SC16 Max Killing]	ratio of the Mean Fluorescent Intensity for the monoclonal divided by the background staining with the 2nd stage [4]	MFI Ratio (4°C / 37°C staining of NCI-H82 cells; relative measure of internalization) [5]	ratio of the Mean Fluorescent Intensity for the monoclonal divided by the background staining with the 2nd stage [6]	ratio of the Mean Fluorescent Intensity for the monoclonal divided by the background staining with the 2nd stage [7]
B1	15	62.9 % of the Control Reference Monoclonal Antibody	89	11.9	1.76	1.5	7.71
B2	13.1	76.5 % of the Control Reference Monoclonal Antibody	94	11.1	1.67	3.97	6.33
B3	9.85	–	–	9.4	1.56	0.99	4.74
B4	18.7	70.1 % of the Control Reference Monoclonal Antibody	97	19.2	1.68	4.7	9.74

Source: patent US20240115720A1 (Memorial Sloan Kettering, published 2024)
